assay: soluble on expression in E. coli; label from the status in PepcDB or PDB records

Sequence | soluble on expression in E. coli
MSLADPADISAASRSVVRVVIIESDGDRANLITHGTGFAVTPNLIVTNAHVVEELRRDDTLIAGVVPAEGRNGFPAKLVAYSPGNDLALLRIEGGGSITPITLFPGAPGDGSEVYAVGYPGNVDLAQGLSMADLVTPQAAVKTRGYLSGGRSSRSFDTLLHTAPLGSGNSGGPLLDSCGRVIGVNSFGTVSDNSTDSAFYFAISMRELSAFLRRANVDAHTSGLPCRSIADLDRAEAERAAGEQARLAAQTAAQADAKQRAMDKARRDAELAILSERDNGEGHHHHHH | soluble
MSLAEFFKDSKASLELRNFYMNKDFRDEVSSAANQQSKQDEWAQGFILKYESGYTEGPVGFGLDMLGLLGVKLDSGPGEAGTGLLPGGYNNRAPDDYSELGVTGKVRFSKTELKVGTLLPKNPVLVYNDTRLLPQTFQGGNLQIKEIEGLTLDFGYLDEVNYRNSTHNEEMSLVNANRRNITIKPGAENEANFFMYGGATYQVTKALTATYYYGELDDLYKQHAVNLVHVLPLGKSSLKTDLRYARSTDDGEAHVDNHAFGLLTTYAMGAHKFGLGLQKMQGDTGFAQINGTDPFLVNYIQVNDFGNADERSWQLRYDYDFAALGIPGLTFMTRYVSGDHVDRGPGSDGKEWERDMDIAYVFQSGMLKNLSLKWRNATMRSNFVRDVDENRLIVSYTLPLLEGHHHHHH | not soluble
MSLAIPFKRINLNLILHLDALLSERSVSAAAEKVFVSQPAMSSSLKQLRELFKDPLLIPGKGEYFLSPKAKELQPQLEQVMFFIRNILQPNERFDPFQTKRSFKIALPDYVELILLPSLMAALEKLPHIVIETTIQSMADDPHLFIDENVDLAIGAINENSLSAQLKVEKLYEEEIICFASKNNPLINRPLSLEDYISNKHIAFSFNQERYSHSAEYLYKRKLVRNDMLFVKNILPAIFAVANSDAVISTAPSFLINMFARQFNLGMQPLPFNLEPTPIYLVTHSKSQYDEGVSWLAKLVSSSIKSPSEGHHHHHH | soluble
MSLAIPRQKMPAQDPVERVGNFKEVNLGLTPEQAQQEALRCIQCKDPVCIAGCPVNIKIDQFIKLIAEGDFMGAVRKIKEDNVLPSICGRVCPQEDQCEKVCVIGKKHEPVAIGNLERFVGDYERTSGQKIDPKIAPPTGKKVAVVGSGPAGLSCANDLAQYGHKVVVFEALHELGGVLMYGIPEFRLPKEIVREELDGLRRMGIEFRTDVVVGRTITIDELMEEEGFDAVFIGVGAGLPWFMGIPGENLVGVLAANEFLTRVNLMKAYDFLKSSDTPVFDCKGKNVAVFGGGNTAMDAVRTAKRLGAEHAYIVYRRSEKEMPAREEEIHNAKEEGIEFLLLTTPLEFVGDEKAWLTGAKCQKMELGEPDDSGRRRPVPVEGSEYILPIDMAIISIGNGPNPLIHQTTPDIEVSKRETIVVDVNTMQTSKENVYAGGDIVTGGATVILAMGAGRKAAAAINEKLGGTAKNEGHHHHHH | soluble
MSLAIQLGKDYTMLSTPQPVADPKKVEVIEFFSYHCIHCYDDDPAFNAWSKTLPADVSFRKEQIVWQKSMEGFARMFATFNATGTFDKLHRAAFDAQIKQRVDLSKPEQFTGWIKQQKGVDSAKLLQTYNSFGINAQVARATKITRDYQIQGTPTVIVNGKYVVVTATPERMIQVMNELVAKAREGHHHHHH | soluble
MSLAKITGGYTATGSAADTMNALAVDDNQSSSGYDRDSFGFRTTDVDGNGCDVRDDVLARDLTDITYKYAGSCVVESGTLADPYTAQTIHFVRGRATSAKVQIDHVVALENAWQSGARDWSTAKRHEFGNDPYNLMAVDGPANQEKGSASAAYWMPTNADYRCDYVARQIGVKDKYQLTVTSQEKDAMLAVLHTCPGQAVPADEEGHHHHHH | soluble
MSLALRFITAEEAAEFVHHNDNVGFSGFTPAGNPKVVPAAIAKRAIAAHEKGNPFKIGMFTGASTGARLDGVLAQADAVKFRTPYQSNKDLRNLINNGSTSYFDLHLSTLAQDLRYGFYGKVDVAIIEVADVTEDGKILPTTGVGILPTICRLADRIIVELNDKHPKEIMGMHDLCEPLDPPARRELPVYTPSDRIGKPYVQVDPAKIVGVVRTSEPNDESDFAPLDPVTQAIGDNVAAFLVSEMKAGRIPKDFLPLQSGVGNVANAVLGALGDNPDIPAFNMYTEVIQDAVIALMKKGRIKFASGCSLSVSRSVIQDIYANLDFFKDKILLRPQEYSNNPEIVRRLGVITINTALEADIFGNINSTHVSGTRMMNGIGGSGDFTRNSYVSIFTTPSVMKDGKISSFVPMVAHHDHSEHSVKVIISEWGVADLRGKNPRERAHEIIDKCVHPDYRPLLRQYLELGVKGQTPQNLDCCFAFHQELAKSGDMRNVRWEDYMKEGHHHHHH | soluble
MSLAMRFMLLLMLVGMAHGALANPLRVCVGDVNVWPPFTYWQGSSAQEKAESLTGSATTLVLEALKKQEIEYQLHFMPWARVQQELAQATGRCDLTWDASYRAERAEYSYFSVPLYTIQLGYFTLPENSKDLNLATDSDVLCGVNGFNYQNFALPREPSLTLNSVQQALNMLQKERCDWFVSEIEPIYGGIMLGLYQLDRPIQHHFLGKTKEYHVQVRRSLPNAMPLLNGLNEYILQAQSSGHAQAVFDRFLSITQTEGHHHHHH | soluble
MSLANNKISQTTKKLSQIFNSEKQPAVFFDKNVSTIEENNSLLDGQTDVPVLDPHDLLVEVQAVSVNPVDTKLRQTGVASKIKILGYDAFGIVKNTGKDVTRFHAGDRVYYAGTTQRPGSNEKFQAVDERLVGRAPEKLNKSEIAAMPLTSITAYEILVDQLGLRFQNHAADGKNMLVINGAGGVGSVLLQMAAYLGINLSVTAHSSESIEWLKKYSVDKIYDYENIDETLADQKFDYIVFLYDPALYWDIAIKHIKPYGQLVSIVGTNKPLNMGPLKNIAVQFKWEYMFAKSDFNHNILSQGQALDKIAILLDAGILKTTLNKTFDLINAENLRQAYKLVESGRMQGKVVLNGEGHHHHHH | not soluble
MSLANQVLAVNDDLPIRTHKPVHSGKVRSVYWLTEEDSARLIKEKGYDVAPDAPLAIMVISDRISAFDCIWHGEGGLKGVPGKGAALNAISNHWFKLFKDNGLADSHILDIPHPFVWIVQKAKPVKIEAICRKYITGSMWRAYANGEREFCGIQLPEGLEKDKALPNLLMTPSTKGILKGIPGVPEADDVNITRQNIVDNYEAFNFSSAEDIAQYEKLLKEGFNVISQALEGIDQIFVDTKFEFGYVHDAAGNEKLIYMDEVGTPDSSRIWDAKEYQAGNIVENSKEGFRQFLLNHFPDPDILLNKERMPEREALARDNDLPVESLMDISRTYIGIAEKITGKPITLSENPKAEIIEILSKEYGLIDEGHHHHHH | soluble
MSLANRMPTPGSLAAFLKDRRTRLDPASFGFSGRRRTPGLRREEVAQRANISPTWYTWLEQGRGGAPSADVLNRIAKGLLLTEAEREHLFMLGLGRPPEVRYRGDEGVSPRLQRLIDTLEASPALVKTATWDVVAWNRAAEIVLTDYGTIPAGRRNILRFMFLTPHIRAKQHDWENLARFVVGAFRADAARAGAVSEVTQLVDELCSGSAEFATLWQENDVLAHGDGTKRLKHPELGDIELEYSSFAVDGRPDLNLTVYNPVDSEVADRIRSLAKRLREGHHHHHH | soluble
MSLAPLDLDKYVEIARLCKYLPENDLKRLCDYVCDLLLEESNVQPVSTPVTVCGDIHGQFYDLCELFRTGGQVPDTNYIFMGDFVDRGYYSLETFTYLLALKAKWPDRITLLRGNHESRQITQVYGFYDECQTKYGNANAWRYCTKVFDMLTVAALIDEQILCVHGGLSPDIKTLDQIRTIERNQEIPHKGAFCDLVWSDPEDVDTWAISPRGAGWLFGAKVTNEFVHINNLKLICRAHQLVHEGYKFMFDEKLVTVWSAPNYCYRCGNIASIMVFKDVNTREPKLFRAVPDSERVIPPRTTTPYFLEGHHHHHH | not soluble
MSLAQFTTNPQRFDPYKNFKFRIKWGADYVAGVSKISGLKRTTEVVKHREGGDPSSSRKSPGRTEYEAITMERGVTHDVAFEQWANKVWNYGSGLGKEVSLADFRKDLVIEVYNEAGQAAMRYKVFRCWVSEFQSMSDLDANGNAVLIQHLKLETEGWERDYDLVEPKEGTFTEPAEGHHHHHH | soluble
MSLAQLDKNDPARGVLAAIAANASKIAEYDPRVRADEYDSVHQMRVATRELRSHLQTFEGILGGEDYLNLEKELKVLANILGRARDAEVVEERLSNLINTEVGDSIEEETKKELLEDLGAEYRREHERVVRALDNDRYTDLLQALENLLVDPPLITEVEEPEATEAPESAETTESTDVSEATEEADAEAESVEEATEQEESADAPESADLDALDEEYSPGSQAPVEEPKEPKKVDAALVLLEHLDKAHVKLVKLEKKARSQWDDLSIPMLEREENFHNLRKAAKKLRYSAEAVGKATTVETKKLYKACSGLQSVLGDYQDAITSRNELLRRAQVARRQGRDTFAYGILYQHEQTLSREYLTGYSDAFKSVEKAYAKLAEDTAKRSKKNKRKEGHHHHHH | not soluble
MSLATAAPFVSDQAEAKGFVEGSTLDLKLRNYYYNRDRKNNPAPGGRSDKDWTQGIWANFSTGYTQGTIGVAAEAFGYGALRLWGPDKYSGSGNLVTDSNGDNEATQGKFGGAVKFRVSKTELKVGDMQPTSPVFAVGGSRILPQTASGLSLQSSEIAGLDLEAGHFYSGTSQDDTSHNGSIWATYANGFNGLKANSADFLGGKYAITDGLGVAFYAAKLEDIWDQYYGNVNYALPLGNDQSLAFDVNLYRTLDEGSSKADSINNTTYSASAAYSFLAAHTVTVAYQKVDGDTPFDYIGIGDNNRGGDSIFLANSVQYSDFNGPGEKSWQIRYDLNMTPYGVPGLSFMTRYLNGDNIDGTKVDASSLYANMYGADGKHHETNLEAKYVVQAGPAKDLSFRMRQAWHRGNDAQSDGDVNEFRLIVDYPISILKGIITITTDPNSSSVDKLAAALEHHHHHH | soluble
MSLATKVTLKDVAARAGVSYQTVSKVLNGEMQVAPETMERIQAAVQELGYRPNRIARNMRAGRSFMIGYSWTQTEPGQVNHILDQFLSSMVREAGAVNYFVLPFPFSEDRSQIDIYRDLIRSGNVDGFVLSSINYNDPRVQFLLKQKFPFVAFGRSNPDWDFAWVDIDGTAGTRQAVEYLIGRGHRRIAILAWPEDSRVGNDRLQGYLEAMQTAQLPIETGYILRGEGTFEVGRAMTLHLLDLSPERRPTAIMTLNDTMAIGAMAAARERGLTIGTDLAIIGFDDAPMVQYLFPPLSSVRQPIAEAGRKCIELLVAIVEGREPEQKHILLQPSLIIRASEGHHHHHH | soluble
MSLCELLGMSANVPTDICFSFTGLMQRGGKTGPHRDGWGIAFYEGKGFRTFKDPNPSSQSKIAELVQQYPIKSRAVISHIRQANRGGVNLENTHPFTRELWGQYWTFAHNGQLTGYQNLVTGRHRPVGETDSELAFCWLLNQMEQCYPEGPQDWPEMLRYVAQCCDELRALGVFNMLLSNGEYVMAYCTNHLYWITRRAPFGCAALLDEDVEINFQEETTPNDVVSVIATQPLTGNETWQRMKPGQFAFFHFGERIEDNAHVLMDVGFAPNRPGCQAPSQPLDEGGSHHHHHH | soluble
MSLCQEKEQDIQKEISYAEKHNNQRRIEGLNKALSEVRANCTDSKLRAEHQKKIAEQKEEVAERQRDLAEAKAKGDADKIDKRERKLAEAQDELKKLEHHHHHH | not soluble
MSLCTPLTSYSGFQAIEAKPAEMKVGEDSKSTLMEKLGSPSAVSTFDNNTWYYISQTTDRVAFYMPRVIKRDVVAIKFNPADEKVASVDTYTLQDGKVIAYNGRETPTRGREMTILEQLLGNVGRGGMLPQDDTAPGQRPGDREGHHHHHH | soluble
MSLDATYVETSTSKLGCRSAVADQVEKFQFGQYECDAPHKLYNSLIDNAKKFIESPDFILLGGDLIAHGLNVTKQMLIDNFNNITNPIEKKYPNTKIYITLGNNDFQKNYGSFDTDLTDFETVFEIFGKWMNTEQAETFKKGGYYYADFPSSNFRFLFLNTVIYSRKRTFNETLTDPYDQFAWIRKMYKDAVQKGYKVGIALHIPPGVVYTDNKVGWNLKYINTFAEIMKECDFSFIISGHSHTDMILPLYTPNSDTDNILYSLSAPSVSPTHYNNPGFRHYLLDQEIIKDFIQYYADIMLNPSELNWEIEYKFSEAYKTQNITRNSINDAVKWIRSTGEGQWRYRERVYSREGHHHHHH | soluble

Source: the DeepSol protein solubility set
